Assay results reported in PMC9850050, “A transaminase with β-activity from Variovorax boronicumulans for the production of enantiopure β-amino acids” (Heliyon, 2022).

What was measured:
[1] = molecular target: T1, VboTA (Variovorax boronicumulans ω-transaminase) (Variovorax boronicumulans, UniProt Z9A1T7NCF1); test: activity at varied substrate concentration; format: biochemical; settings: substrate inhibition; pH 9, 30 °C
T1 construct: full length, 433 aa, C-terminal His-tag (pET21b, NdeI/XhoI), codon-optimised, E. coli BL21(DE3), Ni-NTA
T1 sequence (Z9A1T7NCF1 1-433): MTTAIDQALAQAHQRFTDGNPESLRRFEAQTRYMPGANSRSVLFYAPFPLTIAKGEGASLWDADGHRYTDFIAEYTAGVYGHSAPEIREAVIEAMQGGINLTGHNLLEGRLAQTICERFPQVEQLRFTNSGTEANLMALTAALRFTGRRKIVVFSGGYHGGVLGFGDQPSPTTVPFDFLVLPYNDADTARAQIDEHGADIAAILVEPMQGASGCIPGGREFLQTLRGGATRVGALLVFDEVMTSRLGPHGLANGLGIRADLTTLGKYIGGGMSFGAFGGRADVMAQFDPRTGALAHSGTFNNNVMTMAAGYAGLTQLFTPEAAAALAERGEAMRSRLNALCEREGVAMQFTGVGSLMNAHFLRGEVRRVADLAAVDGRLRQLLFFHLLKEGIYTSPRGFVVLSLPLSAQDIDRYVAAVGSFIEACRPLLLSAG

CC(C)C(N)CC(=O)O = test: purified protein; settings: 5.2 mM 2-oxoglutarate, 0.1 mM PLP, 100 mM potassium borate pH 9, 30 °C, donor 2-10 mM
Description: (§1) glutamate quantification, Lineweaver-Burk on VboTA (Variovorax boronicumulans ω-transaminase)
O=C(O)CCC(=O)C(=O)O = test: purified protein; settings: 10 mM β-phenylalanine, 0.1 mM PLP, 100 mM potassium borate pH 9, 30 °C, 2-8 mM 2-oxoglutarate
Description: as §1
CC(N)CC(=O)O = test: purified protein; settings: 5.2 mM 2-oxoglutarate, 0.1 mM PLP, 100 mM potassium borate pH 9, 30 °C, donor 2-10 mM
Description: as §1
NC(CC(=O)O)c1ccccc1 = test: purified protein; settings: 5.2 mM 2-oxoglutarate, 0.1 mM PLP, 100 mM potassium borate pH 9, 30 °C, donor 2-10 mM, Km above tested range
Description: as §1
NC(CC(=O)O)Cc1ccccc1 = test: purified protein; settings: 5.2 mM 2-oxoglutarate, 0.1 mM PLP, 100 mM potassium borate pH 9, 30 °C, donor 2-10 mM
Description: as §1

O=C(O)CCC(=O)C(=O)O [2-Oxoglutaric acid]
loss of activity at 20 mM [1]: ~ 70%

VboTA (Variovorax boronicumulans ω-transaminase) (Variovorax boronicumulans)
Km (CC(C)C(N)CC(=O)O): 44.7 ± 1.2 mM
Vmax (CC(C)C(N)CC(=O)O): 48.5 µmol/min
kcat (CC(C)C(N)CC(=O)O): 66.5 ± 7.1 s⁻¹
kcat/Km (CC(C)C(N)CC(=O)O): 1500 ± 200 M⁻¹ s⁻¹
Km (O=C(O)CCC(=O)C(=O)O): 2.1 ± 0.4 mM
Vmax (O=C(O)CCC(=O)C(=O)O): 24.9 µmol/min
kcat (O=C(O)CCC(=O)C(=O)O): 34.2 ± 2.7 s⁻¹
kcat/Km (O=C(O)CCC(=O)C(=O)O): 16200 ± 1300 M⁻¹ s⁻¹
Km (CC(N)CC(=O)O): 4.4 ± 0.3 mM
Vmax (CC(N)CC(=O)O): 1.4 µmol/min
kcat (CC(N)CC(=O)O): 2 ± 0.2 s⁻¹
kcat/Km (CC(N)CC(=O)O): 450 ± 50 M⁻¹ s⁻¹
Km (NC(CC(=O)O)c1ccccc1): 24.7 ± 3.8 mM
Vmax (NC(CC(=O)O)c1ccccc1): 20.5 µmol/min
kcat (NC(CC(=O)O)c1ccccc1): 28.1 ± 3.3 s⁻¹
kcat/Km (NC(CC(=O)O)c1ccccc1): 1100 ± 100 M⁻¹ s⁻¹
Km (NC(CC(=O)O)Cc1ccccc1): 0.7 ± 0.2 mM
Vmax (NC(CC(=O)O)Cc1ccccc1): 1.1 µmol/min
kcat (NC(CC(=O)O)Cc1ccccc1): 1.6 ± 0.07 s⁻¹
kcat/Km (NC(CC(=O)O)Cc1ccccc1): 2200 ± 100 M⁻¹ s⁻¹
